This assay deals with EZH2 SRM-SANT1 (residues 141–251) (human) (UniProt Q15910). Nature of the assay: NMR titration; 15N-HSQC spectra of 0.05–0.10 mM 15N-EZH2 SRM-SANT1 with increasing concentrations of histone peptide; 25 °C; Kd from normalized CSPs, one-site model accounting for ligand depletion, averaged over significantly perturbed residues.

Among the data in article PMC6353875, “The EZH2 SANT1 domain is a histone reader providing sensitivity to the modification state of the H4 tail” (Scientific Reports, 2019) are Kd values, retold here.

EZH2 SRM-SANT1 (residues 141–251) (human), sequence (Q15910 141-251): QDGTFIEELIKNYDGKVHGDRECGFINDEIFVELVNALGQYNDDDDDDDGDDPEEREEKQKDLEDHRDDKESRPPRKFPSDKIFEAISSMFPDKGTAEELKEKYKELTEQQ

For the substance “unmodified histone H4 peptide (residues 1–21) (from UniProt P62805 2-22)”, the Kd (commonly the equilibrium constant for the complex coming apart) was determined as 300 µM.
